Biological target: human TNFα (human, UniProt P01375 77-233)
Experiment: cell-based or functional assay

Sequence of human TNFα (P01375 77-233 limits assumed): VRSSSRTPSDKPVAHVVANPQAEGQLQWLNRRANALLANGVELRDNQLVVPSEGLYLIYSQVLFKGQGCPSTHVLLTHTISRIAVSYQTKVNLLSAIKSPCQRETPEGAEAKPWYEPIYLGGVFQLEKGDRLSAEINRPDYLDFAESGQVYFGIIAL

Row | Binder | Ratio of Activities compared to Chimeric Antibody (fold difference, WEHI-164 protection assay at 25 ng/ml)
1 | antibody of heavy chain SEQ. ID. No. 3 and light chain SEQ. ID. No. 2 (antibody, human IgG1, V domains shown) VH: EVQLVESGGGLVQPGGSLKLSCVASGFIFSNHWMNWVRQAPGKGLEWVAEIRSKSINSATHYAESVKGRFTISRDDSKSIVYLQMTDLRTEDTGVYYCSRNYYGSTYDYWGQGTTVTVSS VL: DILLTQSPAILSVSPGERVSFSCRASQFVGSSIHWYQQRTNGSPRLLIKYASESMSGIPSRFSGSGSGTDFTLSINTVESEDIADYYCQQSHSWPFTFGSGTNLEVK | 1.38 fold
2 | antibody of heavy chain SEQ. ID. No. 7 and light chain SEQ. ID. No. 2 (antibody, human IgG1, V domains shown) VH: EVQLVESGGGLVQPGGSLKLSCAASGFIFSNHWMNWVRQAPGKGLEWVAEIRSKSINSATHYAESVKGRFTISRDDSKSIVYLQMNSLKTEDTGVYYCSRNYYGSTYDYWGQGTTVTVSS VL: DILLTQSPAILSVSPGERVSFSCRASQFVGSSIHWYQQRTNGSPRLLIKYASESMSGIPSRFSGSGSGTDFTLSINTVESEDIADYYCQQSHSWPFTFGSGTNLEVK | 1.02 fold
3 | antibody of heavy chain SEQ. ID. No. 5 and light chain SEQ. ID. No. 2 (antibody, human IgG1, V domains shown) VH: EVQLVESGGGLVQPGGSLKLSCVASGFIFSNHWMNWVRQAPGKGLEWVAEIRSKSINSATHYAESVKGRFTISRDDSKSIVYLQMNDLKTEDTGVYYCSRNYYGSTYDYWGQGTTVTVSS VL: DILLTQSPAILSVSPGERVSFSCRASQFVGSSIHWYQQRTNGSPRLLIKYASESMSGIPSRFSGSGSGTDFTLSINTVESEDIADYYCQQSHSWPFTFGSGTNLEVK | 1.24 fold
4 | antibody of heavy chain SEQ. ID. No. 6 and light chain SEQ. ID. No. 2 (antibody, human IgG1, V domains shown) VH: EVQLVESGGGLVQPGGSLKLSCVASGFIFSNHWMNWVRQAPGKGLEWVAEIRSKSINSATHYAESVKGRFTISRDDSKSIVYLQMNSLKTEDTGVYYCSRNYYGSTYDYWGQGTTVTVSS VL: DILLTQSPAILSVSPGERVSFSCRASQFVGSSIHWYQQRTNGSPRLLIKYASESMSGIPSRFSGSGSGTDFTLSINTVESEDIADYYCQQSHSWPFTFGSGTNLEVK | 1.2 fold

Source: patent US20080206239A1 (ANTITOPE, published 2008)
